From US20190233493A1 (Sanofi, published 2019)
*1 amine or outer side, *2 acyl side, *3 side chain or, on linkers, in order; H or OH if unused. Primed or numbered codes have the meaning given here. Side-chain parts run from the residue outwards. [ ]: non-standard residue; d: D form. The star is where a group is joined. γGlu = O=C(O)[C@H](CCC(=O)[*:2])N[*:1]; Stearoyl = CCCCCCCCCCCCCCCCCC(=O)*; Palmitoyl = CCCCCCCCCCCCCCCC(=O)*; Nle = CCCC[C@H](N)C(=O)O; PEG2′ = PEG2 spacer unit; PEG2″ = not defined here; Aib = CC(C)(N)C(=O)O

T1: RXFP1 receptor (UniProt Q9HBX9 1-757, limits assumed)
T1 sequence (looked up): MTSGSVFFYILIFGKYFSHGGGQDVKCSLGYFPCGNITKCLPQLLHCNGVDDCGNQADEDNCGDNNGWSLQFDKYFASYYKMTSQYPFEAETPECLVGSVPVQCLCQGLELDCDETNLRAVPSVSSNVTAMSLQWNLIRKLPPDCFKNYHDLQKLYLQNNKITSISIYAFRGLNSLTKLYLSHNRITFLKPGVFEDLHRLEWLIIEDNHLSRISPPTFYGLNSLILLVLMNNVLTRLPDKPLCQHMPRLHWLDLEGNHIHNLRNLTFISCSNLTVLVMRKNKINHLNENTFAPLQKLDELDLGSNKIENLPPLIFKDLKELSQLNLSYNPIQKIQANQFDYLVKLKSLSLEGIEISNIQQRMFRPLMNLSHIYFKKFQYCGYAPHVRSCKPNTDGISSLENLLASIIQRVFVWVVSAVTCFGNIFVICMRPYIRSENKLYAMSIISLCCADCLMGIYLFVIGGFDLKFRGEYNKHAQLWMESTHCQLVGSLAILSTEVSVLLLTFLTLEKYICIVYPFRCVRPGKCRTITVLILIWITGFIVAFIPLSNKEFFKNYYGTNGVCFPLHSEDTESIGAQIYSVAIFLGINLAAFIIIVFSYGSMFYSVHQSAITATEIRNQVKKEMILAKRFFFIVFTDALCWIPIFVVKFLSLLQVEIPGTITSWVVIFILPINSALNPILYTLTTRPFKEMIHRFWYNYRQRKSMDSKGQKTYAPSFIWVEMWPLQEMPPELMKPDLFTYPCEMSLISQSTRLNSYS

B1: peptide of SEQ ID NO: 111 (peptide)
peptide: LEGREKVRAXIXXEGQSTWSXRKKX
modifications: Ac-L-E-G-R-E-K-V-R-A-K(Ac)-I-Aib-Aib-E-G-Q-S-T-W-S-Aib-R-K-K-K(PEG2-PEG2-PEG2-gE-gE-gE-gE-gE-Stea)-NH2

Target: T1, RXFP1 receptor
Test: cell-based or functional assay

Row | Binder | EC50 (nM), OVCAR 5 cells (cAMP) [nM] | EMax, OVCAR 5 cells (cAMP) [%]
1 | Ac-LEGREKVRAQI[Aib][Aib]EG[Nle]STWS[Aib]RKK[PEG2″][PEG2″][PEG2″][γGlu][γGlu][γGlu]K([γGlu-Palmitoyl])-NH2 [peptide of SEQ ID NO: 110] | 0.17 | 80
2 | Ac-LEGREKVRAQI[Aib][Aib]EG[Nle]STWS[Aib]RK[PEG2″][PEG2″]K([γGlu-γGlu-γGlu-Palmitoyl])-NH2 [peptide of SEQ ID NO: 11] | 14.7 | 89
3 | Ac-LEGREKVRAQI[Aib][Aib]EG[Nle]STWS[Aib]RKKK([γGlu-γGlu-PEG2″-PEG2″-PEG2″-γGlu-Stearoyl])-NH2 [peptide of SEQ ID NO: 106] | 0.34 | 93
4 | B1 | 0.21 | 92
5 | Ac-LEGREKVRAQI[Aib][Aib]EG[Nle]STWS[Aib]RKKK[PEG2″][PEG2″][PEG2″][γGlu][γGlu]K([γGlu-Palmitoyl])-NH2 [peptide of SEQ ID NO: 109] | 0.15 | 98
6 | Ac-LEGREKVRAK(Ac)I[Aib][Aib]EG[Nle]STWS[Aib]RKK(Ac)[PEG2″][PEG2″][PEG2″]K([γGlu-γGlu-γGlu-Palmitoyl])-NH2 [peptide of SEQ ID NO: 114] | 1.34 | 90
7 | Ac-LEGREKVRAK(Ac)I[Aib][Aib]EGQSTWS[Aib]RKKK([PEG2′-PEG2′-PEG2′-γGlu-γGlu-γGlu-γGlu-Stearoyl])-NH2 [peptide of SEQ ID NO: 115] | 0.17 | 93
8 | Ac-LEGREKVRAK(Ac)I[Aib][Aib]EG[Nle]STFS[Aib]RKK(Ac)K([PEG2″-PEG2″-PEG2″-γGlu-γGlu-γGlu-Stearoyl])-NH2 [peptide of SEQ ID NO: 112] | 0.32 | 88
9 | Ac-LEGREKVRAQI[Aib][Aib]EG[Nle]STWS[Aib]RKKK[PEG2″][PEG2″][PEG2″][γGlu][γGlu][γGlu]K([γGlu-Palmitoyl])-NH2 [peptide of SEQ ID NO: 107] | 0.63 | 85
10 | Ac-LEGREKVRAQI[Aib][Aib]EG[Nle]STWS[Aib]RKKK[PEG2″][PEG2″][PEG2″][PEG2″][γGlu][γGlu][γGlu]K([γGlu-Palmitoyl])-NH2 [peptide of SEQ ID NO: 108] | 0.15 | 94
11 | Ac-LEGREKVRAK(Ac)I[Aib][Aib]EGQSTWS[Aib]RKK(Ac)K([PEG2″-PEG2″-PEG2″-γGlu-γGlu-γGlu-Stearoyl])-NH2 [peptide of SEQ ID NO: 113] | 0.53 | 89
12 | Ac-LEGREKVRAQI[Aib][Aib]EG[Nle]STWS[Aib]RKKK([γGlu-γGlu-PEG2″-PEG2″-γGlu-Stearoyl])-NH2 [peptide of SEQ ID NO: 105] | 0.03 | 88
